# Substitutions are numbered along the chain they refer to. Names and notes keep the numbering of the source.
# T1: PUF4 RNA-binding domain (Saccharomyces cerevisiae, UniProt P25339 537-888)
# T1 sequence: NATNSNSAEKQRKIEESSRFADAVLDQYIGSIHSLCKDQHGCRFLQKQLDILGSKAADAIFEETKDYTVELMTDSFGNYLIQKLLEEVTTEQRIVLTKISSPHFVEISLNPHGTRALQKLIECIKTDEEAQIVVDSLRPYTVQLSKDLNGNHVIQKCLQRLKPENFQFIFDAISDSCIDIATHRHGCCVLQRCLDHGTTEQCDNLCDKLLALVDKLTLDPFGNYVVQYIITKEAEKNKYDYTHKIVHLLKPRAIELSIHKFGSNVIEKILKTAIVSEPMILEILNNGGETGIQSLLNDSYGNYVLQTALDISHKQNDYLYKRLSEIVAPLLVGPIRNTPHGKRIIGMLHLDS
# B1: Ib_S1_P4E.1_K4.1_C4.1_H4.1_A4.1_[A6G]_F4.1_[T8A]_T4.1 (ssRNA)
# RNA: UCUCUUUGUAUGUAAUCUCUU
# B2: Ic_S4_P4E.1_K4.1_C4.1_H4.1_A4.1_[T5C]_[T7C]_F4.1_[T8C]_[A9G]_T4.1 (ssRNA)
# RNA: UUUGACAACUGAUCGUUCUUUCUUGUACACCGUUCUUUCUCGAUCAGUUGUCUUU
# B3: Ic_S4_P4E.1_K4.1_C4.1_H4.1_A4.1_[T5A]_[A6C]_F4.1_[T8A]_[A9T]_T4.1 (ssRNA)
# RNA: B2 RNA with C28A, A29C, C30U, C31A, G32U
# B4: Ic_S4_P4E.1_K4.1_C4.1_H4.1_A4.1_[T5A]_[A6C]_[T7A]_F4.1_[T8G]_[A9C]_T4.1 (ssRNA)
# RNA: B2 RNA with C28A, A29C, C30A, C31G, G32C
# B5: Ic_S4_P4E.1_K4.1_C4.1_H4.1_A4.1_[T5A]_[A6C]_[T7A]_F4.1_T4.1 (ssRNA)
# RNA: B2 RNA with C28A, A29C, C30A, C31U, G32A
# B6: Ic_S4_P4E.1_K4.1_C4.1_H4.1_A4.1_[T5A]_[A6C]_F4.1_T4.1 (ssRNA)
# RNA: B2 RNA with C28A, A29C, C30U, C31U, G32A
# B7: Ic_S4_P4E.1_K4.1_C4.1_H4.1_A4.1_[T5A]_[A6C]_[T7A]_F4.1_[A9C]_T4.1 (ssRNA)
# RNA: B2 RNA with C28A, A29C, C30A, C31U, G32C
# B8: Ic_S4_P4E.1_K4.1_C4.1_H4.1_A4.1_[T5C]_F4.1_[T8A]_T4.1 (ssRNA)
# RNA: B2 RNA with C30U, C31A, G32A
# B9: Ic_S4_P4E.1_K4.1_C4.1_H4.1_A4.1_[T5C]_F4.1_[T8G]_[A9C]_T4.1 (ssRNA)
# RNA: B2 RNA with C30U, C31G, G32C
# B10: Ic_S4_P4E.1_K4.1_C4.1_H4.1_A4.1_[T5C]_[T7C]_F4.1_[T8A]_T4.1 (ssRNA)
# RNA: B2 RNA with C31A, G32A
# B11: Ic_S4_P4E.1_K4.1_C4.1_H4.1_A4.1_[T5C]_F4.1_[T8A]_[A9G]_T4.1 (ssRNA)
# RNA: B2 RNA with C30U, C31A
# B12: Ic_S4_P4E.1_K4.1_C4.1_H4.1_A4.1_[T5A]_[A6C]_[T7C]_F4.1_T4.1 (ssRNA)
# RNA: B2 RNA with C28A, A29C, C31U, G32A
# B13: Ic_S4_P4E.1_K4.1_C4.1_H4.1_A4.1_[T5C]_[T7A]_F4.1_[T8C]_[A9T]_T4.1 (ssRNA)
# RNA: B2 RNA with C30A, G32U
# B14: Ic_S4_P4E.1_K4.1_C4.1_H4.1_A4.1_[T5A]_[A6C]_F4.1_[T8C]_[A9G]_T4.1 (ssRNA)
# RNA: B2 RNA with C28A, A29C, C30U
# B15: Ic_S4_P4E.1_K4.1_C4.1_H4.1_A4.1_[T5A]_[A6T]_[T7C]_F4.1_[A9G]_T4.1 (ssRNA)
# RNA: B2 RNA with C28A, A29U, C31U
# B16: Ic_S4_P4E.1_K4.1_C4.1_H4.1_A4.1_[T5A]_[A6C]_[T7G]_F4.1_[T8G]_[A9C]_T4.1 (ssRNA)
# RNA: B2 RNA with C28A, A29C, C30G, C31G, G32C
# B17: Ic_S4_P4E.1_K4.1_C4.1_H4.1_A4.1_[T5A]_[A6C]_F4.1_[T8A]_[A9G]_T4.1 (ssRNA)
# RNA: B2 RNA with C28A, A29C, C30U, C31A
# B18: Ic_S4_P4E.1_K4.1_C4.1_H4.1_A4.1_[T5C]_[T7A]_F4.1_[T8C]_[A9C]_T4.1 (ssRNA)
# RNA: B2 RNA with C30A, G32C
# B19: Ic_S4_P4E.1_K4.1_C4.1_H4.1_A4.1_[T5C]_[T7A]_F4.1_[T8G]_[A9C]_T4.1 (ssRNA)
# RNA: B2 RNA with C30A, C31G, G32C
# B20: Ic_S4_P4E.1_K4.1_C4.1_H4.1_A4.1_[T5A]_[A6T]_[T7C]_F4.1_[T8C]_T4.1 (ssRNA)
# RNA: B2 RNA with C28A, A29U, G32A
# B21: Ic_S4_P4E.1_K4.1_C4.1_H4.1_A4.1_[T5A]_[A6C]_[T7C]_F4.1_[A9G]_T4.1 (ssRNA)
# RNA: B2 RNA with C28A, A29C, C31U
# B22: Ic_S4_P4E.1_K4.1_C4.1_H4.1_A4.1_[T5A]_[A6C]_[T7C]_F4.1_[T8C]_[A9T]_T4.1 (ssRNA)
# RNA: B2 RNA with C28A, A29C, G32U
# B23: Ic_S4_P4E.1_K4.1_C4.1_H4.1_A4.1_[T5A]_[A6T]_[T7A]_F4.1_[T8C]_[A9T]_T4.1 (ssRNA)
# RNA: B2 RNA with C28A, A29U, C30A, G32U
# B24: Ic_S4_P4E.1_K4.1_C4.1_H4.1_A4.1_[T5C]_[T7C]_F4.1_[T8A]_[A9G]_T4.1 (ssRNA)
# RNA: B2 RNA with C31A
# B25: Ic_S4_P4E.1_K4.1_C4.1_H4.1_A4.1_[T5A]_[A6T]_[T7G]_F4.1_[T8C]_[A9T]_T4.1 (ssRNA)
# RNA: B2 RNA with C28A, A29U, C30G, G32U
# B26: Ic_S4_P4E.1_K4.1_C4.1_H4.1_A4.1_[T5A]_[A6T]_[T7C]_F4.1_[T8G]_[A9G]_T4.1 (ssRNA)
# RNA: B2 RNA with C28A, A29U, C31G
# B27: Ic_S4_P4E.1_K4.1_C4.1_H4.1_A4.1_[T5C]_F4.1_[A9C]_T4.1 (ssRNA)
# RNA: B2 RNA with C30U, C31U, G32C
# B28: Ic_S4_P4E.1_K4.1_C4.1_H4.1_A4.1_[T5A]_[A6C]_[T7C]_F4.1_[T8G]_[A9C]_T4.1 (ssRNA)
# RNA: B2 RNA with C28A, A29C, C31G, G32C
# B29: Ic_S4_P4E.1_K4.1_C4.1_H4.1_A4.1_[T5A]_[A6C]_F4.1_[T8C]_[A9T]_T4.1 (ssRNA)
# RNA: B2 RNA with C28A, A29C, C30U, G32U
# Target: T1, PUF4 RNA-binding domain
# Experiment: Mg; RNA-MaP; 20 mM Na-HEPES pH 7.4, 30 mM KOAc, 0.75 mM MgCl2, 0.1% Tween-20, 5% glycerol, 0.1 mg/mL BSA, 2 mM DTT; 25 C; 0.0125-409.6 nM protein
# Details: tags: N-His6-TEV cleaved; C-SNAP kept, Cy3B-labelled; label: tethered on chip by stalled RNA polymerase
binder,measurement,value
B1,Kd,94.6 nM
B2,Kd,72 nM
B3,Kd,49.4 nM
B4,Kd,879 nM
B5,Kd,1.34 nM
B6,Kd,3.93 nM
B7,Kd,22.5 nM
B8,Kd,2.32 nM
B9,Kd,14.3 nM
B10,Kd,16.9 nM
B11,Kd,11 nM
B12,Kd,5.74 nM
B13,Kd,39.4 nM
B14,Kd,577 nM
B15,Kd,41.6 nM
B16,Kd,> 2300 nM
B17,Kd,653 nM
B18,Kd,99.9 nM
B19,Kd,700 nM
B20,Kd,464 nM
B21,Kd,44.1 nM
B22,Kd,225 nM
B23,Kd,116 nM
B24,Kd,270 nM
B25,Kd,518 nM
B26,Kd,1920 nM
B27,Kd,3.55 nM
B28,Kd,927 nM
B29,Kd,72 nM

# — article PMC9352680, “A comprehensive thermodynamic model for RNA binding by the Saccharomyces cerevisiae Pumilio protein PUF4”
